Data on three molecules can be found in PMC6581175, “Versatile Oxidase and Dehydrogenase Activities of Bacterial Pyranose 2-Oxidase Facilitate Redox Cycling with Manganese Peroxidase In Vitro” (Applied and Environmental Microbiology, 2019).

Series [1] addresses T1, KaPOx (Kitasatospora aureofaciens, UniProt A0A1E7NAU4).
T1 construct: gene HS99_0024835
T1 sequence (A0A1E7NAU4 1-545): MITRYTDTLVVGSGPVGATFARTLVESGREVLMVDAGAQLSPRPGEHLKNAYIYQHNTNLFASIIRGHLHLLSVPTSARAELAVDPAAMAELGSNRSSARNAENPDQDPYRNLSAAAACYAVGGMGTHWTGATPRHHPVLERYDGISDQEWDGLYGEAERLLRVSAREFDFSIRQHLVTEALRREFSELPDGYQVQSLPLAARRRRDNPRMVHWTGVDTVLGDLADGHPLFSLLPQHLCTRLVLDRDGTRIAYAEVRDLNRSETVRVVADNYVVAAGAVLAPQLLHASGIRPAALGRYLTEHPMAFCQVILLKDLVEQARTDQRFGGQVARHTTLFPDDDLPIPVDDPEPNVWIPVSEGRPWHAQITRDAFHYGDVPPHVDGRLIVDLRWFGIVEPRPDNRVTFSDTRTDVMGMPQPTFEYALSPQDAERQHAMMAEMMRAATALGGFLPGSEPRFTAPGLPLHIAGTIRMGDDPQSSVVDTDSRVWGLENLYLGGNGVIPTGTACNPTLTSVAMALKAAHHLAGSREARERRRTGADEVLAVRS
The series can be described thus: spectrophotometric electron acceptor reduction. To be noted: apparent, 30 mM D-glucose, nitrogen-bubbled solutions, 50 mM Britton-Robinson pH 7.5, 30°C, kcat per dimer.

The test system of series [2] is CCn1c(=N[N]c2sc3cc(S(=O)(=O)O)ccc3[n+]2CC)sc2cc(S(=O)(=O)O)ccc21. Nature of the series: purified protein. Conditions: pH 7.5; 30.0 °C.
Substrate in series [3]: O=C1O[C@H](CO)[C@@H](O)[C@H](O)[C@H]1O
Nature of the series: purified protein. The format is biochemical, Kitasatospora aureofaciens. To be noted: apparent, electron donor, O2 at air saturation (about 250 uM), 50 mM Britton-Robinson pH 7.5, 30°C, kcat per dimer.

Substrate in series [4]: O=C1C=CC(=O)C=C1
The series can be described thus: purified protein. To be noted: apparent, electron acceptor, 30 mM D-glucose, nitrogen-bubbled solutions, 50 mM Britton-Robinson pH 7.5, 30°C, kcat per dimer.

Substrate in series [5]: O=C1C(Cl)=CC(=Nc2ccc(O)cc2)C=C1Cl
The series can be described thus: purified protein. To be noted: apparent, electron acceptor, 30 mM D-glucose, nitrogen-bubbled solutions, 50 mM Britton-Robinson pH 7.5, 30°C, kcat per dimer.

Turning to Ferrocenium ion, the Michaelis-Menten constant (Km) (commonly the concentration of substrate that gives half-maximal velocity) in series [1] was found to be 1030 ± 1000 µM.
For the molecule KaPOx (Kitasatospora aureofaciens), in series [2], the Michaelis-Menten constant (Km) was 40 ± 0 µM, the Vmax (commonly the top rate of the reaction or transport when substrate is in excess) amounted to 6.1 µmol/min/mg and the catalytic efficiency (kcat/Km) (usually the second-order rate constant that governs catalysis at low substrate concentration) is 309000 M⁻¹ s⁻¹.

B1: KaPOx (Kitasatospora aureofaciens) (protein)
chain: T1 sequence (A0A1E7NAU4 1-545)
notes: full-length synthetic gene, C-terminal 6xHis kept, N-terminal T7 tag excluded, pET-21b(+), E. coli T7 Express; no signal peptide predicted
With B1, in series [3], the Michaelis constant (Km) stood at 28700 ± 2400 µM; the Vmax was 0.8 µmol/min/mg; the kcat – broadly, the number of substrate molecules converted per active site and unit of time at saturation – was 1.8 ± 0.1 s⁻¹; the catalytic efficiency (kcat/Km) stood at 60 M⁻¹ s⁻¹. In addition, in series [4], the Michaelis constant (Km) was found to be 80 ± 100 µM, the Vmax was 12.2 µmol/min/mg, the kcat is 24.9 ± 7.1 s⁻¹ and the kcat/Km worked out at 311000 M⁻¹ s⁻¹. For the same molecule, in series [5], the Km stood at 30 ± 0 µM, the Vmax was determined as 4.4 µmol/min/mg, the kcat amounted to 9.4 ± 1.1 s⁻¹ and the specificity constant (kcat/Km) turned out to be 313000 M⁻¹ s⁻¹.
